Data taken from PMC6416295.

Columns and labels:
[1] = test system: HlyU (Vibrio vulnificus MO6-24/O); assay: EMSA; conditions: 10 mM Tris-Cl pH 7.5, 50 mM KCl, 5 mM MgCl2, 5% glycerol, 0.1 ug poly(dI-dC) in 20 ul, 5 nM DNA, 25 C, 0.5 h; 6% native PAGE
[2] = test system: HlyU (Vibrio vulnificus MO6-24/O); assay: EMSA; conditions: 10 mM Tris-Cl pH 7.5, 50 mM KCl, 5 mM MgCl2, 5% glycerol, 0.1 ug poly(dI-dC) in 20 ul, 5 nM DNA, 25 C, 0.5 h; 6% native PAGE; remark: listed apart in the source

Substance: PrtxA 264-bp
- Kd [1]: 0.0252 µM
- Kd [2]: 0.0548 µM
